One may read the tissue uptake as the share of the injected amount in each gram of the tissue.

The nature of series [1]: In vitro stability in serum by radio-HPLC. Format: in vitro ADME. Particulars: fetal calf serum (result text); newborn calf serum / 2 mL human serum in method; 37 MBq, 37 °C, incubation 6 h (analysed at 0 min, 3, 4, 6 h); radio-HPLC radiochemical purity. On the procedure:
The stability of ^99mTc-3P-RGD2 in newborn calf serum was determined after incubating the radiolabeled compound (37 MBq) in 2 mL […] at 37 °C. Every 20 μL mixture was injected directly into the radio-HPLC to analyze the radiochemistry purity, which was followed by radiolabeling efficiency analysis at 0 min, 3, 4, and 6 h.
Fig. 2 Radio-HPLC analysis of ^99mTc-3P-RGD2 stability. ^99mTc-3P-RGD2 incubated in new-born calf serum for 0 min (a), 3 h (b), 4 h (c), 6 h (d) after labeling

The subject of another series is HEP-2 tumor. Description: Biodistribution in HEP-2 tumor bearing mice. Format: in vivo, BALB/c nude mice. To be noted: stated for HEP-2 and CNE-1 tumor models together. As for the experimental part:
(§1) Female BALB/c nude mice (4–5 weeks of age, 15–20 g of weight) were purchased from the Department of Animal Experiment, Chinese Academy of Medical Sciences. The mice were subcutaneously implanted with 3 × 10^6 the HEP-2 cells (6 mice) or 2 × 10^5 the CNE-1 cells (6 mice) in 0.1 mL of saline into the right upper shoulder flanks. All procedures were performed in a laminar flow cabinet using the aseptic technique. Fifteen to nineteen days after inoculation, the tumor size was 1–1.5 cm, the tumor-bearing mice were used for biodistribution and imaging studies. Capital Medical University Animal Care and Use Committee approved the animal experiments.
(§2) The biodistribution of ^99mTc-3P-RGD2 in HEP-2 tumor bearing mice and CNE-1 tumor bearing mice was evaluated in groups of 3 mice per time point at 60 min and 120 min after injection of approximately 0.55–0.74 MBq of ^99mTc-3P-RGD2 in 0.1 mL saline via tail vein. From all mice, tumors and tissue samples (blood, heart, liver, spleen, kidney, lung, intestine and muscle) were harvested and weighed. Subsequently, radioactivity uptake was determined in γ-counter. Activity concentrations in the tissues were calculated as percentage of the injected dose per gram of tissue (%ID/g). To correct for radioactive decay, injection standards were counted simultaneously.

Series [2] in a line: Biodistribution in HEP-2 tumor bearing mice. Format: in vivo, BALB/c nude mice. To be noted: female, BALB/c nude, mouse, iv, total radioactivity, HEP-2 model, mean ± SD. As for the experimental part: as §1, §2
Series [3] in a line: Biodistribution in CNE-1 tumor bearing mice. The series is classed as in vivo. To be noted: female, BALB/c nude, mouse, iv, total radioactivity, CNE-1 model, mean ± SD. As for the experimental part:
as §1, §2

With `N=C(N)NCCC[C@@H]1NC(=O)[C@H](CCCCNC(=O)CCOCCOCCOCCOCCNC(=O)CC[C@H](NC(=O)CCOCCOCCOCCOCCNC(=O)c2ccc(NN)nc2)C(=O)NCCOCCOCCOCCOCCC(=O)NCCCC[C@@H]2NC(=O)[C@@H](Cc3ccccc3)NC(=O)[C@H](CC(=O)O)NC(=O)CNC(=O)[C@H](CCCNC(=N)N)NC2=O)NC(=O)[C@@H](Cc2ccccc2)NC(=O)[C@H](CC(=O)O)NC(=O)CNC1=O` [^99mTc-3P-RGD2, [^99mTc(HYNIC-3P-RGD2)(tricine)(TPPTS)], metal not drawn], the “stability in serum (radio-HPLC)” value in series [1] is given as “stable”. In addition, the “uptake in blood and muscle” value with HEP-2 tumor (60 min p.i.) was “low”. The route of excretion result with HEP-2 tumor is listed as “excreted predominantly via the renal route”. For the same compound, the kidney uptake result in the series with HEP-2 tumor (selected organs) is “highest in the selected organs”. For the same compound, the tissue to tissue ratio at 2 h was 6.37 ± 0.68 in series [2] (HEP-2 tumor / blood, 120 min p.i., read-out: tumor/blood ratio); 4.44 ± 0.42 in series [2] (HEP-2 tumor / muscle, 120 min p.i., read-out: tumor/muscle ratio); 2.49 ± 0.09 in series [3] (CNE-1 tumor / blood, 120 min p.i., read-out: tumor/blood ratio); 1.86 ± 0.07 in series [3] (CNE-1 tumor / muscle, 120 min p.i., read-out: tumor/muscle ratio). In addition, the tissue uptake at 1 h in series [2] (HEP-2 tumor, 60 min p.i., tail vein 0.55–0.74 MBq, γ-counter, %ID/g, 3 mice per time point) is 6.25 ± 0.22 %ID/g; in series [3] (CNE-1 tumor, 60 min p.i., tail vein 0.55–0.74 MBq, γ-counter, %ID/g, 3 mice per time point), 2.74 ± 0.51 %ID/g. Moreover, the tissue uptake at 2 h came to 4.56 ± 0.67 %ID/g in series [2] (HEP-2 tumor, 120 min p.i., tail vein 0.55–0.74 MBq, γ-counter, %ID/g, 3 mice per time point) and 1.69 ± 0.18 %ID/g in series [3] (CNE-1 tumor, 120 min p.i., tail vein 0.55–0.74 MBq, γ-counter, %ID/g, 3 mice per time point).

The values are drawn from paper PMC4514642, “^99mTc-3P-RGD2 molecular imaging targeting integrin αvβ3 in head and neck squamous cancer xenograft” (Journal of Radioanalytical and Nuclear Chemistry, 2015).
